Assay results taken from publication PMC10777020, “The N1 domain of the peroxisomal AAA-ATPase Pex6 is required for Pex15 binding and proper assembly with Pex1” (The Journal of Biological Chemistry, 2023).

T1: Pex1/ΔN1-Pex6 (Saccharomyces cerevisiae, UniProt P24004+P33760)
T1 construct: Pex1 with C-terminal FLAG; Pex6 lacking first 184 residues (N1 domain) with N-terminal His tag; heterohexamer
T1 sequence (P24004 1-1043): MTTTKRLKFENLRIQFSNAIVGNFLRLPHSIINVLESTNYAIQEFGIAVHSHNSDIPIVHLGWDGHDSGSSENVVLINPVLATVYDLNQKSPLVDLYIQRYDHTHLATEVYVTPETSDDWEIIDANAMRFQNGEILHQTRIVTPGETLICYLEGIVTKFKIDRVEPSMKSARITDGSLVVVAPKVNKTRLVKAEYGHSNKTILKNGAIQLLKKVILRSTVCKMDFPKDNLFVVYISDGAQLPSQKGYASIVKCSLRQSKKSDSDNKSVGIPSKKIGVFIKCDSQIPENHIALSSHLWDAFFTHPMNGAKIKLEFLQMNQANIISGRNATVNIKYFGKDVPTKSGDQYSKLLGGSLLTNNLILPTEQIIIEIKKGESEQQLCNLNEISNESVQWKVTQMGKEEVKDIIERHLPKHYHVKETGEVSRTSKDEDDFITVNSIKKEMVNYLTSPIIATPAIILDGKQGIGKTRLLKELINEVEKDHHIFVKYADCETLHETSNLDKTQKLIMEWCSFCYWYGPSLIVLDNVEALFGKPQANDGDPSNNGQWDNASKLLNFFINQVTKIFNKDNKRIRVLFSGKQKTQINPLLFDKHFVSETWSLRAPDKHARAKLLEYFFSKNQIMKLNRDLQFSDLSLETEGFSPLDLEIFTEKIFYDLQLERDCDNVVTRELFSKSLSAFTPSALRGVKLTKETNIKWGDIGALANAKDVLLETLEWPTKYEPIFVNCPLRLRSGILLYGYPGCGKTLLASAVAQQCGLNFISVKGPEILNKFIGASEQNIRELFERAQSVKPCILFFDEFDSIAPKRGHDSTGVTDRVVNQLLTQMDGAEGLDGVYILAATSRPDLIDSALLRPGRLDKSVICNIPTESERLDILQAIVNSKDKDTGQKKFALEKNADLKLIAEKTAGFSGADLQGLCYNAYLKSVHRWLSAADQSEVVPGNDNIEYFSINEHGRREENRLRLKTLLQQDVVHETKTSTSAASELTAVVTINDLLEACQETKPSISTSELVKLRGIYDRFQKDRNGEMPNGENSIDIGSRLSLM
T1 sequence (P33760 185-1030): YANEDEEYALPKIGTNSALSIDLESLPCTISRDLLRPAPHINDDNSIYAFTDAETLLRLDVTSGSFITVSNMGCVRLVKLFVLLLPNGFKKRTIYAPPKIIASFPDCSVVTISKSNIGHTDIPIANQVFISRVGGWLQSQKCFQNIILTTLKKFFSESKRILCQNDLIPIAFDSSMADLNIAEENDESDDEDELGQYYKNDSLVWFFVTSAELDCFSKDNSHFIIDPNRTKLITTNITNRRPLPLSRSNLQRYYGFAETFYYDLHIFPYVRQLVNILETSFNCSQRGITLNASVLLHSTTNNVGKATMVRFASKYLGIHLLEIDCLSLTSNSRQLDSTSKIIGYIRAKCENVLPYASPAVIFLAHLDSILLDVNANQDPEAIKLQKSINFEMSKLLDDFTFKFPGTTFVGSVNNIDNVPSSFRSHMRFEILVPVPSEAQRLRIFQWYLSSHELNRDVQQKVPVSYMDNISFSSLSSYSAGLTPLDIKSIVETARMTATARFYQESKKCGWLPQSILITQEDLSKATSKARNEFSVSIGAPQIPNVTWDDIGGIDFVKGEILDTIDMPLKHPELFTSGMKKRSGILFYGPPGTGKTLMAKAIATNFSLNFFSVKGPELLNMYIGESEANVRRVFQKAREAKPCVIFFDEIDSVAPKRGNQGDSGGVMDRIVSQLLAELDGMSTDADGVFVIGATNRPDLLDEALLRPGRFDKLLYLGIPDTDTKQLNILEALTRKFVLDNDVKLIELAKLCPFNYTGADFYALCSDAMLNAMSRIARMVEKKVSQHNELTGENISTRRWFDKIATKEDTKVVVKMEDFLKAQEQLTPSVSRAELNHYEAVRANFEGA

T2: Pex1/Pex6 (Pex1-FLAG/His-Pex6) (Saccharomyces cerevisiae, UniProt P24004+P33760)
T2 construct: heterohexamer of alternating Pex1 and Pex6
T2 sequence (P24004 1-1043): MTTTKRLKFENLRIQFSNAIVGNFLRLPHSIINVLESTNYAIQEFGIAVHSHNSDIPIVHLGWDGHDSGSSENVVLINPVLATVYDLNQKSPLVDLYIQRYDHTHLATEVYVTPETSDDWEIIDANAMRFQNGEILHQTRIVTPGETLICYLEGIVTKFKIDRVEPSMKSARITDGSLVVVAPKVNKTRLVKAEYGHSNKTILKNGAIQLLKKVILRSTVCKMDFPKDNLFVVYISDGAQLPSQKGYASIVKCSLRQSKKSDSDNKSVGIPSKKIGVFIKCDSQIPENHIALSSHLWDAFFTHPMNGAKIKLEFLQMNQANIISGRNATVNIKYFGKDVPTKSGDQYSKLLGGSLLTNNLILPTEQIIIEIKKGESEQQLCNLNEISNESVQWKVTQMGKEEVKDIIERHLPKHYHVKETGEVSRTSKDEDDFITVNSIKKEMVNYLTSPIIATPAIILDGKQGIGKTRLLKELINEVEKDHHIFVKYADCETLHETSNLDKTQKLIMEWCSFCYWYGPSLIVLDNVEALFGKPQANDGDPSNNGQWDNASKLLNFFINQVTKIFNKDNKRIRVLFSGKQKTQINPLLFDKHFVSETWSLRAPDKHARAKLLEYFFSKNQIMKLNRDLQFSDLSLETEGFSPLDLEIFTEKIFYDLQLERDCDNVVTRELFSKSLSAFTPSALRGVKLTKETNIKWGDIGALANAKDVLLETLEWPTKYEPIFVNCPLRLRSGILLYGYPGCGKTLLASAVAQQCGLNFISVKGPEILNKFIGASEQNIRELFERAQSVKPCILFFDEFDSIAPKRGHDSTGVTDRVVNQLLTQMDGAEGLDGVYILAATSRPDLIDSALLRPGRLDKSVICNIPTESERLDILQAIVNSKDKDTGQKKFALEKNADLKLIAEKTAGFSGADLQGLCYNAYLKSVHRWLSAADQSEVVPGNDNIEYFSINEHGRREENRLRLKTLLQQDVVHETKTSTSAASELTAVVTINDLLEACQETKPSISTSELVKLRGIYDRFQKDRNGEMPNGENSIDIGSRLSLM
T2 sequence (P33760 1-1030): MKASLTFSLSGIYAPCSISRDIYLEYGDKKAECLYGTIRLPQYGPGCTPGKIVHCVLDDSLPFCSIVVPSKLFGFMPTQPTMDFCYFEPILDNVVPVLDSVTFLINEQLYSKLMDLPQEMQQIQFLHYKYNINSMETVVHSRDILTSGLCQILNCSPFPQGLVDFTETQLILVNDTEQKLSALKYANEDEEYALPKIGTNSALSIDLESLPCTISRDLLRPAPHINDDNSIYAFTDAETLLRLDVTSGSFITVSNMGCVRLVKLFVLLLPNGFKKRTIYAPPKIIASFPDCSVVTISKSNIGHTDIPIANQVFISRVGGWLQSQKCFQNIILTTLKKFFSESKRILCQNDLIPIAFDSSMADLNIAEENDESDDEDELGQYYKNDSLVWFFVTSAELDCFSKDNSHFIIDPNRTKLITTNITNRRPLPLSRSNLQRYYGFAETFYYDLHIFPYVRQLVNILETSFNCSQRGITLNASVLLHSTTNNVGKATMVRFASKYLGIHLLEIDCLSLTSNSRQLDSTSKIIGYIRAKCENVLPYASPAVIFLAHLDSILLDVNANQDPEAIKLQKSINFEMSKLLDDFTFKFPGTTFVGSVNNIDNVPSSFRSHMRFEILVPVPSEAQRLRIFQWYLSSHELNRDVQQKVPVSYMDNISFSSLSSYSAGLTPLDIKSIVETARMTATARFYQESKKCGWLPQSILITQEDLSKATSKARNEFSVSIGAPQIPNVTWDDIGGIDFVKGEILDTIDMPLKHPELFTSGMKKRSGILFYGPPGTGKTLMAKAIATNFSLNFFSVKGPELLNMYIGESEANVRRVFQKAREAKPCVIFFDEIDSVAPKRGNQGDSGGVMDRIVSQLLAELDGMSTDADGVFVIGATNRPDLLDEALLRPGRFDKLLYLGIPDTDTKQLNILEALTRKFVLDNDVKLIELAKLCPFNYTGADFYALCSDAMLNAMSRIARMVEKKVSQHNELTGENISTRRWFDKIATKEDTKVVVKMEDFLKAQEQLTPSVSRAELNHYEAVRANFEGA

T3: His-Pex6 (S. cerevisiae, UniProt P33760 1-1030)
T3 construct: Pex6, AAA-ATPase of S. cerevisiae; no limits stated for the construct; In all experiments it stood in a complex with Pex1-FLAG or a Pex1 variant; also called ScPex6; His-tagged Pex6; source: E. coli BL21*(DE3), co-expressed with Pex1-FLAG or its variants; in lysate, then purified (Ni-NTA, anti-FLAG, Superose6 Increase); not shown: His, N-terminal, kept
T3 sequence: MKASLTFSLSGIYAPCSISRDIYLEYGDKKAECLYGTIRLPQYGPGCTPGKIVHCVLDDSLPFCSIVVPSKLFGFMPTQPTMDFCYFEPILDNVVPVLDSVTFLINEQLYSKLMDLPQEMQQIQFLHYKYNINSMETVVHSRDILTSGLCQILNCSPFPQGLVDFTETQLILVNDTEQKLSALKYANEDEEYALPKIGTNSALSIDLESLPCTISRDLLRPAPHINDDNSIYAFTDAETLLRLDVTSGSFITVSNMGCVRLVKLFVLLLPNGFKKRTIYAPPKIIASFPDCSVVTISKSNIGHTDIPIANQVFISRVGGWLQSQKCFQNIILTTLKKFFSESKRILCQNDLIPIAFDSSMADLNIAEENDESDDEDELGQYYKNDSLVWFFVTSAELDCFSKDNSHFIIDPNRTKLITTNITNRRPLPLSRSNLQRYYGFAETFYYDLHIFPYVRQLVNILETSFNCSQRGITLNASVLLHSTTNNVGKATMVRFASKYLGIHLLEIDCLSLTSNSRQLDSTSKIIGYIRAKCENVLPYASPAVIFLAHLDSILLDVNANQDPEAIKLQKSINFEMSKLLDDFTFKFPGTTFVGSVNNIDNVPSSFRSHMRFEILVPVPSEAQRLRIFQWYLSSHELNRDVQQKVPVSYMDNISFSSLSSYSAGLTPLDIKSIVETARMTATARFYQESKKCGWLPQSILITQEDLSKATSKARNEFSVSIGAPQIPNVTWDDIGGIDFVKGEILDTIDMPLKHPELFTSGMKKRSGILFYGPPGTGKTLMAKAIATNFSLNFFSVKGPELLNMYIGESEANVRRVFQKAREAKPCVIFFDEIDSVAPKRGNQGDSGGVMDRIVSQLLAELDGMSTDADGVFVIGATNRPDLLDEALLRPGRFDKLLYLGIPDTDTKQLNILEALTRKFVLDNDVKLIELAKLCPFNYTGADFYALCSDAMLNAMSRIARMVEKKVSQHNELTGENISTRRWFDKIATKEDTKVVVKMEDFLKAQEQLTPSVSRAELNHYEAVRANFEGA


How the values were obtained:
[1] = target: T1, Pex1/ΔN1-Pex6; test: enzyme-coupled ATPase assay; type: biochemical; conditions: 5 mM ATP, 30 °C
[2] = target: T2, Pex1/Pex6 (Pex1-FLAG/His-Pex6); test: cryo-EM structure, ~[…] Å D1, ~[…]-9 Å D2; type: binding; conditions: 1 mM ATP, pH 7.6, 10 mM MgCl2, with mEOS3.2-Pex15 1-309 (no substrate density in pore); ATP modelled in all D1 sites and four D2 sites
[3] = test system: T4, Nc1ncnc2c1ncn2[C@@H]1O[C@H](COP(=O)(O)OP(=O)(O)OP(=O)(O)O)[C@@H](O)[C@H]1O; test: purified protein; type: biochemical, Saccharomyces cerevisiae; conditions: 30 °C, ATP varied, hydrolysis in D2 ring
T4 construct: heterohexamer of alternating Pex1 and Pex6

[4] = target: T3, His-Pex6; test: cross-linking; photocrosslinking by AzF in Pex1 as above, in the absence or presence of 10 uM Pex15 1-309, Pex15 1-266 or Pex15 43-309; His-Pex6 stood in the complex with the Pex1 variant; conditions: both partners purified

| binding result [4] | Molecule | Km [3] | also measured |
| --- | --- | --- | --- |
|  | Nc1ncnc2c1ncn2[C@@H]1O[C@H](COP(=O)(O)OP(=O)(O)OP(=O)(O)O)[C@@H](O)[C@H]1O [ATP] |  | enzyme-coupled ATPase assay [1]: Pex1/ΔN1-Pex6 motor had ATPase activity comparable to WT Pex1/Pex6; cryo-EM structure, ~4 Å D1, ~5-9 Å D2 [2]: we find density for nucleotide in all the D1 ATPase domains, which we modeled as ATP |
|  | Pex1/Pex6 (Pex1-FLAG/His-Pex6) (Saccharomyces cerevisiae S288C) | 230 µM |  |
|  | Pex1/Pex6 (Pex1-FLAG/His-Pex6) (Saccharomyces cerevisiae S288C; P24004:DEL941-967) | 1030 µM |  |
| binds | Pex15 1-309 (cytosolic domain of Pex15) (domain or fragment, S. cerevisiae, UniProt Q08215 1-309, looked up, also called Pex15's cytosolic domain) MAASEIMNNLPMHSLDSSLRDLLNDDLFIESDESTKSVNDQRSEVFQECVNLFIKRDIKDCLEKMSEVGFIDITVFKSNPMILDLFVSACDIMPSFTKLGLTLQSEILNIFTLDTPQCIETRKIILGDLSKLLVINKFFRCCIKVIQFNLTDHTEQEEKTLELESIMSDFIFVYITKMRTTIDVVGLQELIEIFIFQVKVKLHHKKPSPNMYWALCKTLPKLSPTLKGLYLSKDVSIEDAILNSIDNKIQKDKAKSKGKQRGVKQKIHHFHEPMLHNSSEEQVKVEDAFNQRTSTDSRLQSTGTAPRKK |  |  |
| binds | Pex15 1-266 (domain or fragment, S. cerevisiae, UniProt Q08215 1-266, looked up) MAASEIMNNLPMHSLDSSLRDLLNDDLFIESDESTKSVNDQRSEVFQECVNLFIKRDIKDCLEKMSEVGFIDITVFKSNPMILDLFVSACDIMPSFTKLGLTLQSEILNIFTLDTPQCIETRKIILGDLSKLLVINKFFRCCIKVIQFNLTDHTEQEEKTLELESIMSDFIFVYITKMRTTIDVVGLQELIEIFIFQVKVKLHHKKPSPNMYWALCKTLPKLSPTLKGLYLSKDVSIEDAILNSIDNKIQKDKAKSKGKQRGVKQK |  |  |
